Experimental findings from paper PMC11139864 are described below.

The target of test [1] is Thogoto virus (THOV) polymerase, full-length heterotrimer of PB2, PB1 and PA (Thogoto virus (isolate SiAr 126)) (UniProt Q9YNA4). Description: cryo-EM structure; replicative elongation sample: 3.2 uM THOVPol, 30 °C for 6 h with 1.6 uM 3' vRNA, 1.6 uM 5' vRNA, 160 uM primer pppApG, 1.6 mM each ATP and CTP; 25 mM Tris-HCl pH 7.5, 300 mM NaCl, 2 mM MnCl2, 8 mM TCEP, 1% glycerol; asymmetric dimer of two heterotrimers (THOVPol-ELR with THOVPol-RER) beside a monomeric form.

Test [2] has the same target. Briefly: cryo-EM structure; transcriptional elongation sample: 3.2 uM THOVPol, 30 °C for 6 h with 2.5 uM 3' vRNA, 2.5 uM 5' vRNA, 160 uM capped primer m7GpppAmG, 1.6 mM each ATP and CTP; 25 mM Tris-HCl pH 7.5, 300 mM NaCl, 2 mM MnCl2, 8 mM TCEP, 1% glycerol; asymmetric dimer of two heterotrimers (THOVPol-EL with THOVPol-RE) beside monomeric forms.
Test [3] shares this target.

For the substance “Thogoto virus (THOV) polymerase, full-length heterotrimer of PB2, PB1 and PA (from UniProt Q9YNA4 1-769; Q9YNA4 1-769; Q9YNA4 1-769) (complex)”, the stoichiometry N – broadly, the number of molecules, sites or subunits per partner or assembly – in test [1] was found to be 2. The same substance yielded a stoichiometry N in test [2] of 2. In test [3], the reduction of mRNA and cRNA levels in the mini-replicon assay (RT-qPCR) with PB2-HA D547A/F549A (dimer interface 1) is greater than 100 fold; the reduction of mRNA and cRNA levels in the mini-replicon assay (RT-qPCR) with PB2-HA F134A/W138A (dimer interface 2) was greater than 100 fold; the reduction of mRNA and cRNA levels in the mini-replicon assay (RT-qPCR) with PB2-HA Q295A/D547A/I653A (dimer interfaces 1 and 3) was greater than 100 fold.
